In patent publication US20240368239A1 (SL METAGEN, published 2024):

T1: human GLP-2 receptor (human, UniProt O95838 1-553)
T1 sequence (looked up): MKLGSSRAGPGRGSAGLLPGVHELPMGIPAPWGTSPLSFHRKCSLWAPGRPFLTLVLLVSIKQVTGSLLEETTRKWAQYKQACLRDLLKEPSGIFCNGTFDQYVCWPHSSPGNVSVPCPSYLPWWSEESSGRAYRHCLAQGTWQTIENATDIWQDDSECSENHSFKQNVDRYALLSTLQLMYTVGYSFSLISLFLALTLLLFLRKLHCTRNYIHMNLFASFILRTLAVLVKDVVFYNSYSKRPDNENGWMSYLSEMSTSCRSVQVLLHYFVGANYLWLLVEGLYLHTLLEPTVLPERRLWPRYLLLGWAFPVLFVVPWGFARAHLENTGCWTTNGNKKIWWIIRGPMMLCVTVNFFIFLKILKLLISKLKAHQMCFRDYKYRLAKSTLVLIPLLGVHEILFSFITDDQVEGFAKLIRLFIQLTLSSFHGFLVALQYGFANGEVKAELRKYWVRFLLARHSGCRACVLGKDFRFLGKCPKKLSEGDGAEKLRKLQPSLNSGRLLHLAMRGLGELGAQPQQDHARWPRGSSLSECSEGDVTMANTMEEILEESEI


Assays:
Assay in all cases: cell-based or functional assay
GLP-1 receptor [1] = target: GLP-1 receptor
human GLP-2 receptor [2] = target: T1, human GLP-2 receptor
GLP-1 receptor [3] = target: GLP-1 receptor; remark: listed apart in the source
human GLP-2 receptor [4] = target: T1, human GLP-2 receptor; remark: listed apart in the source
GLP-1 receptor [5] = target: GLP-1 receptor; remark: listed apart in the source

EC50, GLP-1 activity (luciferase reporter assay) (GLP-1 receptor [1]) [nM] | EC50, GLP-2 activity (fluorescence spectroscopy) (human GLP-2 receptor [2]) [nM] | EC50 (pM), cAMP luciferase reporter in GLP1R_cAMP/luc cells (GLP-1 receptor [3]) [pM] | vs. GLP-1 relative activity (%) (GLP-1 receptor [3]) | EC50 (nM), cAMP-gated CNG channel membrane potential dye fluorescence (Ft/F0) in Human GLP2R ACTOne cells (human GLP-2 receptor [4]) [nM] | vs. GLP-2 relative activity (%) (human GLP-2 receptor [4]) | fold reduction of GLP-1 activity (cAMP luciferase reporter) (GLP-1 receptor [5]) [times] | Binder
0.402 | 44 | – | – | – | – | – | MG12-2 (bispecific fusion protein of Example 2) (Fc fusion, glycan linker (SEQ ID NO: 43) with N-glycosylation sites) chain 1: HGDGSFSDEMNTILDNLAARDFINWLIQTKITDGGGGSGGGGSGGGGSAKNTTAPATTRNTTRGGEEKKKEKEKEEQEERTHTCPPCPSHTQPLGVFLFPPKPKDTLMISRTPEVTCVVVDVSQEDPEVQFNWYVDGVEVHNAKTKPREEQFNSTYRVVSVLTVLHQDWLNGKEYKCKVSNKGLPSSIEKTISKAKGQPREPQVYTLPPCQEEMTKNQVSLWCLVKGFYPSDIAVEWESNGQPENNYKTTPPVLDSDGSFFLYSRLTVDKSRWQEGNVFSCSVMHEALHNHYTQKSLSLSLGK chain 2: HGEGTFTSDVSSYLEGQAAKEFIAWLVKGRGGGGGSGGGGSGGGGSEKEKEEQEERTHTCPPCPSHTQPLGVFLFPPKPKDTLMISRTPEVTCVVVDVSQEDPEVQFNWYVDGVEVHNAKTKPREEQFNSTYRVVSVLTVLHQDWLNGKEYKCKVSNKGLPSSIEKTISKAKGQPREPQVCTLPPSQEEMTKNQVSLSCAVKGFYPSDIAVEWESNGQPENNYKTTPPVLDSDGSFFLVSRLTVDKSRWQEGNVFSCSVMHEALHNHYTQKSLSLSLGK
– | – | 66 | 39 | 1.22 | 48 | – | MG12-4 (bispecific fusion protein of Example 4) (Fc fusion, glycan linker (SEQ ID NO: 43) with N-glycosylation sites) chain 1: HGEGTFTSDVSSYLEGQAAKEFIAWLVKGGPSSGAPPPSGGGGGSGGGGSGGGGSAKNTTAPATTRNTTRGGEEKKKEKEKEEQEERTHTCPPCPSHTQPLGVFLFPPKPKDQLMISRTPEVTCVVVDVSQEDPEVQFNWYVDGVEVHNAKTKPREEQFNSTYRVVSVLTVLHQDWLNGKEYKCKVSNKGLPSSIEKTISKAKGQPREPQVYTLPPCQEEMTKNQVSLWCLVKGFYPSDIAVEWESNGQPENNYKTTPPVLDSDGSFFLYSRLTVDKSRWQEGNVFSCSVLHEALHNHYTQKSLSLSLGK chain 2: HGDGSFSDEMNTILDNLAARDFINWLIQTKITDGGGGSGGGGSGGGGSEKEKEEQEERTHTCPPCPSHTQPLGVFLFPPKPKDQLMISRTPEVTCVVVDVSQEDPEVQFNWYVDGVEVHNAKTKPREEQFNSTYRVVSVLTVLHQDWLNGKEYKCKVSNKGLPSSIEKTISKAKGQPREPQVCTLPPSQEEMTKNQVSLSCAVKGFYPSDIAVEWESNGQPENNYKTTPPVLDSDGSFFLVSRLTVDKSRWQEGNVFSCSVLHEALHNHYTQKSLSLSLGK
– | – | 304 | 9 | 1.35 | 43 | ~11 | MG12-1 (bispecific fusion protein of Example 1) (Fc fusion, glycan linker (SEQ ID NO: 43) with N-glycosylation sites) chain 1: HGEGTFTSDVSSYLEGQAAKEFIAWLVKGRGGGGGSGGGGSGGGGSAKNTTAPATTRNTTRGGEEKKKEKEKEEQEERTHTCPPCPSHTQPLGVFLFPPKPKDTLMISRTPEVTCVVVDVSQEDPEVQFNWYVDGVEVHNAKTKPREEQFNSTYRVVSVLTVLHQDWLNGKEYKCKVSNKGLPSSIEKTISKAKGQPREPQVYTLPPCQEEMTKNQVSLWCLVKGFYPSDIAVEWESNGQPENNYKTTPPVLDSDGSFFLYSRLTVDKSRWQEGNVFSCSVMHEALHNHYTQKSLSLSLGK chain 2: HGDGSFSDEMNTILDNLAARDFINWLIQTKITDGGGGSGGGGSGGGGSEKEKEEQEERTHTCPPCPSHTQPLGVFLFPPKPKDTLMISRTPEVTCVVVDVSQEDPEVQFNWYVDGVEVHNAKTKPREEQFNSTYRVVSVLTVLHQDWLNGKEYKCKVSNKGLPSSIEKTISKAKGQPREPQVCTLPPSQEEMTKNQVSLSCAVKGFYPSDIAVEWESNGQPENNYKTTPPVLDSDGSFFLVSRLTVDKSRWQEGNVFSCSVMHEALHNHYTQKSLSLSLGK
– | – | 75 | 35 | 0.99 | 59 | – | MG12-5 (bispecific fusion protein of Example 5) (Fc fusion) chain 1: HGEGTFTSDVSSYLEGQAAKEFIAWLVKGGPSSGAPPPSGGGGSGGGGSGGGGSEKEKEEQEERTHTCPPCPSHTQPLGVFLFPPKPKDQLMISRTPEVTCVVVDVSQEDPEVQFNWYVDGVEVHNAKTKPREEQFNSTYRVVSVLTVLHQDWLNGKEYKCKVSNKGLPSSIEKTISKAKGQPREPQVYTLPPCQEEMTKNQVSLWCLVKGFYPSDIAVEWESNGQPENNYKTTPPVLDSDGSFFLYSRLTVDKSRWQEGNVFSCSVLHEALHNHYTQKSLSLSLGK chain 2: HGDGSFSDEMNTILDNLAARDFINWLIQTKITDGGGGSGGGGSGGGGSEKEKEEQEERTHTCPPCPSHTQPLGVFLFPPKPKDQLMISRTPEVTCVVVDVSQEDPEVQFNWYVDGVEVHNAKTKPREEQFNSTYRVVSVLTVLHQDWLNGKEYKCKVSNKGLPSSIEKTISKAKGQPREPQVCTLPPSQEEMTKNQVSLSCAVKGFYPSDIAVEWESNGQPENNYKTTPPVLDSDGSFFLVSRLTVDKSRWQEGNVFSCSVLHEALHNHYTQKSLSLSLGK
